Source: PMC10654636

What was measured:
Assay in all cases: BLI; biotinylated recombinant human FcγR loaded on SAX (streptavidin) biosensors, antibody in serial dilutions in solution; kinetic buffer 1% casein, 0.2% Tween20, 1x PBS pH 7.4; 30°C; Octet HTX; global fit, 1:1 Langmuir model
[1] = biological target: human FcγRI (CD64), biotinylated recombinant protein (human) (UniProt P12314)
[2] = biological target: human FcγRIIa R131 (CD32a R131), biotinylated recombinant protein (human)
[3] = biological target: human FcγRIIIa V158 (CD16 V158), biotinylated recombinant protein (human)
[4] = biological target: human FcγRIIa H131 (CD32a H131), biotinylated recombinant protein (human) (UniProt P12318)
[5] = biological target: human FcγRIIb (CD32b), biotinylated recombinant protein (human) (UniProt P31994)
[6] = biological target: human FcγRIIIa F158 (CD16 F158), biotinylated recombinant protein (human) (UniProt P08637)

nonfucosylated anti-TIGIT mAb, human IgG1 (SEA-TGT) (antibody; other documents disagree on this pair), sequence (VH): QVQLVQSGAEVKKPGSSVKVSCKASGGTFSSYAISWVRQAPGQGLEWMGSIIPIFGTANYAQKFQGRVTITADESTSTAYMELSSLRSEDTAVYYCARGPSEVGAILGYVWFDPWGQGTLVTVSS
nonfucosylated anti-TIGIT mAb, human IgG1 (SEA-TGT) (antibody; other documents disagree on this pair), sequence (VL): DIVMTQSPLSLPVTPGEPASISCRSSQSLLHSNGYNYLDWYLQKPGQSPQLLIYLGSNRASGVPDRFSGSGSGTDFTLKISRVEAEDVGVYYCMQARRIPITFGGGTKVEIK
nonfucosylated anti-TIGIT mAb, human IgG1 (SEA-TGT) (antibody), sequence (VH): as the sequence (VH) above
nonfucosylated anti-TIGIT mAb, human IgG1 (SEA-TGT) (antibody), sequence (VL): as the sequence (VL) above

Substance | Kd [1] [nM] | Kd [2] [nM] | Kd [3] [nM] | Kd [4] [nM] | Kd [5] [nM] | Kd [6] [nM]
Fc-muted anti-TIGIT mAb, human IgG1 L234A/L235A/P329G (LALA-TGT) (antibody; other documents disagree on this pair) | 25500 | – | – | – | – | –
anti-TIGIT mAb, human IgG1 S239D/A330L/I332E (DLE-TGT) (antibody) | – | 1560 | 60 | – | – | –
anti-TIGIT mAb, human IgG1 S239D/A330L/I332E (DLE-TGT) (antibody; other documents disagree on this pair) | – | – | – | 1620 | 3130 | –
nonfucosylated anti-TIGIT mAb, human IgG1 (SEA-TGT) (antibody) | – | 3640 | 90 | – | – | –
nonfucosylated anti-TIGIT mAb, human IgG1 (SEA-TGT) (antibody; other documents disagree on this pair) | 1.9 | – | – | 3220 | 19100 | 490
